Consider 11 molecules from publication PMC12588282 (Science Advances, 2025).

In data set [1] the target is Fc region of the Xenopus laevis IgX heavy chain (Cχ2, Cχ3, Cχ4 and χtp) (Xenopus laevis). Briefly: 2D cryo-EM classification.
Data set [2] addresses Fragment of Fcχ consisting of Cχ3, Cχ4 and χtp (Xenopus laevis). Kind of data set: cryo-EM structure.
The target is the same in data set [3]. Briefly: 2D cryo-EM classification.
The target in data set [4] is Human Fcμ variant with the tailpiece truncated to 13 residues (human). Kind of data set: native gel or EMSA.
Data set [5] has the same target. Kind of data set: 2D cryo-EM classification.
Data set [6] has as its target Human Fcμ variant with the tailpiece truncated to 14 residues (human). Briefly: native gel or EMSA. A general note: A gel shift assay detects complexes by their altered migration in electrophoresis.
Data set [7] shares this target. Kind of data set: 2D cryo-EM classification.
Data set [8] concerns the target Human Fcμ variant with the tailpiece truncated to 15 residues (human). Briefly: native gel or EMSA.
Data set [9] shares this target. Kind of data set: 2D cryo-EM classification.
Data set [10] concerns the target Human Fcμ variant with the tailpiece truncated to 16 residues (human). Briefly: native gel or EMSA.
For data set [11] the target is unchanged. Briefly: 2D cryo-EM classification.
Data set [12] concerns the target Human Fcμ variant with the tailpiece truncated to 17 residues (human). Briefly: 2D cryo-EM classification.
Data set [13] deals with Recombinant human Fcμ with an intact 18-amino acid tailpiece (human). Kind of data set: AUC.
Data set [14] shares this target. Briefly: 2D cryo-EM classification.
Data set [15] deals with the molecule itself. Briefly: 2D cryo-EM classification.
The data set “AUC” concerns the molecule itself. Briefly: AUC.

By stoichiometry N is commonly meant a count of units in the complex or per binding partner.

“And” between values parts separate entries of the source, which are not always exact repeats. Equal values may be shown once.

For “Fc region of the Xenopus laevis IgX heavy chain (Cχ2, Cχ3, Cχ4 and χtp) (domain or fragment)”, in [1], the stoichiometry N turned out to be 6.

As for “Fragment of Fcχ consisting of Cχ3, Cχ4 and χtp (domain or fragment)”, the stoichiometry N in data set [2] and in data set [3] was 6 in each case.

In the case of “Human Fcμ variant with the tailpiece truncated to 13 residues (domain or fragment)”, the stoichiometry N in [4] and in data set [5] was 6 each time.

For “Human Fcμ variant with the tailpiece truncated to 14 residues (domain or fragment)”, the stoichiometry N in [6] and in [7] was 6 throughout.

With “Human Fcμ variant with the tailpiece truncated to 15 residues (domain or fragment)”, the stoichiometry N in [8] and in data set [9] was 6 throughout.

As for “Human Fcμ variant with the tailpiece truncated to 16 residues (domain or fragment)”, the stoichiometry N in [10] and in [11] was 6 each time.

Consider “Human Fcμ variant with the tailpiece truncated to 17 residues (domain or fragment)”, for which the stoichiometry N in data set [12] was 6 and 5.

With “Recombinant human Fcμ with an intact 18-amino acid tailpiece (domain or fragment)”, the stoichiometry N was 4 and 5 and 6 in data set [13]; 6 and 4 and 5 in data set [14].

B1: Human Fcμ variant with the tailpiece truncated to 12 residues (domain or fragment)
chain: IAELPPKVSVFVPPRDGFFGNPRKSKLICQATGFSPRQIQVSWLREGKQVGSGVTTDQVQAEAKESGPTTYKVTSTLTIKESDWLGQSMFTCRVDHRGLTFQQNASSMCVPDQDTAIRVFAIPPSFASIFLTKSTKLTCLVTDLTTYDSVTISWTRQNGEAVKTHTNISESHPNATFSAVGEASICEDDWNSGERFTCTVTHTDLPSPLKQTISRPKGVALHRPDVYLLPPAREQLNLRESATITCLVTGFSPADVFVQWMQRGQPLSPEKYVTSAPMPEPQAPGRYFAHSILTVSEEEWNTGETYTCVVAHEALPNRVTERTVDKSTGKPTLYNVSLVMSD
On to B1, for which, in [15], the “stoichiometry N” value is 6.

B2: Human Fcμ variant with the tailpiece truncated to 10 residues (domain or fragment)
chain: IAELPPKVSVFVPPRDGFFGNPRKSKLICQATGFSPRQIQVSWLREGKQVGSGVTTDQVQAEAKESGPTTYKVTSTLTIKESDWLGQSMFTCRVDHRGLTFQQNASSMCVPDQDTAIRVFAIPPSFASIFLTKSTKLTCLVTDLTTYDSVTISWTRQNGEAVKTHTNISESHPNATFSAVGEASICEDDWNSGERFTCTVTHTDLPSPLKQTISRPKGVALHRPDVYLLPPAREQLNLRESATITCLVTGFSPADVFVQWMQRGQPLSPEKYVTSAPMPEPQAPGRYFAHSILTVSEEEWNTGETYTCVVAHEALPNRVTERTVDKSTGKPTLYNVSLVM
As for B2, the “stoichiometry N” value in data set [15] is 6 and 4.

B3: Human Fcμ variant with the tailpiece truncated to 11 residues (domain or fragment)
chain: IAELPPKVSVFVPPRDGFFGNPRKSKLICQATGFSPRQIQVSWLREGKQVGSGVTTDQVQAEAKESGPTTYKVTSTLTIKESDWLGQSMFTCRVDHRGLTFQQNASSMCVPDQDTAIRVFAIPPSFASIFLTKSTKLTCLVTDLTTYDSVTISWTRQNGEAVKTHTNISESHPNATFSAVGEASICEDDWNSGERFTCTVTHTDLPSPLKQTISRPKGVALHRPDVYLLPPAREQLNLRESATITCLVTGFSPADVFVQWMQRGQPLSPEKYVTSAPMPEPQAPGRYFAHSILTVSEEEWNTGETYTCVVAHEALPNRVTERTVDKSTGKPTLYNVSLVMS
modifications: glycosylation at Asn563
In the case of B3, the “stoichiometry N” value in “AUC” came out at 6.
